Experimental data reported in PMC10781630, “Structural basis of Gabija anti-phage defence and viral immune evasion” (Nature, 2023).

Columns and labels:
[1] = molecular target: Bacillus cereus VD045 GajB, untagged, co-expressed with tagged GajA (Bacillus cereus VD045) (UniProt J8HQ06); assay: crystal structure; co-expressed and co-purified GajAB, 3.0 Å; hanging drop, 18 °C, 100 mM HEPES-NaOH pH 7.5, 2.4% PEG-400, 2.2 M ammonium sulfate
[2] = molecular target: T1, Bacillus cereus VD045 GajA, co-expressed with GajB, tag removed (subunit of the GajAB complex) (Bacillus cereus VD045, UniProt J8H9C1 2-578); assay: as above; conditions: both partners purified
T1 construct: GajA, Bacillus cereus VD045, IMG ID 2519684552; the 5×GS linker may stay on GajA after SENP2 cleavage; also called BcGajA; source: E. coli BL21(DE3) strains, co-expressed with GajB, purified (Ni-NTA, SUMO2 cleavage by hSENP2, SEC); not shown: 6×His-SUMO2-5×GS, N-terminal, cleaved
T1 sequence: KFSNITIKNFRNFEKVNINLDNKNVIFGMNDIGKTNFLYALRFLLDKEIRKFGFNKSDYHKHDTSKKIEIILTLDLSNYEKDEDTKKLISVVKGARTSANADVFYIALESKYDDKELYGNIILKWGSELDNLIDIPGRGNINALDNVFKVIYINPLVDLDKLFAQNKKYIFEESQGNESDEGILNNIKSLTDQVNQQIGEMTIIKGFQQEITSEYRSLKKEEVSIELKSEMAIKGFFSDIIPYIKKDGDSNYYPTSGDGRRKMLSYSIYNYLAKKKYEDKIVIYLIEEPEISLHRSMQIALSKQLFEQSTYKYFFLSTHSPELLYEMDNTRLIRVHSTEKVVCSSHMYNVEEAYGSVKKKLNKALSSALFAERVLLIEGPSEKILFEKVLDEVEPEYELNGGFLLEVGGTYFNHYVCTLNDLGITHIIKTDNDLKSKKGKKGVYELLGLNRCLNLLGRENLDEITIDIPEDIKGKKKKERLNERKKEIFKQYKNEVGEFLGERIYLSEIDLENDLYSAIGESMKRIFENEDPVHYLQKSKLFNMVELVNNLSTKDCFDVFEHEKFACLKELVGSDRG

GajA E379A;GajB = molecular target: T2, GajA E379A;GajB (Bacillus cereus VD045;Bacillus cereus …, UniProt J8H9C1;J8HQ06 1-578;1-494, E379A|); assay: EMSA; 5 mM Ca2+; conditions: protein: recombinant;recombinant; tags: N-terminal 6xHis-SUMO2-5xGS, cleaved by SENP2;none in co-expressed complex; chain copies: 4;4; label: none (ethidium bromide post-stain)
T2 sequence 1: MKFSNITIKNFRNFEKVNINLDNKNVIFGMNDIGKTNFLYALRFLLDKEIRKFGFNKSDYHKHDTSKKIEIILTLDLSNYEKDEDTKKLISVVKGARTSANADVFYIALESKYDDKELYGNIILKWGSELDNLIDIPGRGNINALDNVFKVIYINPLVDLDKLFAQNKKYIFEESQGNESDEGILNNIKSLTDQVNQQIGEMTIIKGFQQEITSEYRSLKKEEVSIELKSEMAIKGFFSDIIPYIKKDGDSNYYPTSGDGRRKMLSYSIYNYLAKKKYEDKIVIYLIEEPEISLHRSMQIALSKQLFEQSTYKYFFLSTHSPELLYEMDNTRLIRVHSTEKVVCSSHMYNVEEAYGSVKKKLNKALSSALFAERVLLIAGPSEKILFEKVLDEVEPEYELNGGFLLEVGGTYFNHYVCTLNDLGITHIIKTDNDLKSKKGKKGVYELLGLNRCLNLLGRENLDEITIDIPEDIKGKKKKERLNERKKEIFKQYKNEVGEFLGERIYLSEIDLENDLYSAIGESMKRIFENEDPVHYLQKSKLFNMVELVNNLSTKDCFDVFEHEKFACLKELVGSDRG
T2 sequence 2: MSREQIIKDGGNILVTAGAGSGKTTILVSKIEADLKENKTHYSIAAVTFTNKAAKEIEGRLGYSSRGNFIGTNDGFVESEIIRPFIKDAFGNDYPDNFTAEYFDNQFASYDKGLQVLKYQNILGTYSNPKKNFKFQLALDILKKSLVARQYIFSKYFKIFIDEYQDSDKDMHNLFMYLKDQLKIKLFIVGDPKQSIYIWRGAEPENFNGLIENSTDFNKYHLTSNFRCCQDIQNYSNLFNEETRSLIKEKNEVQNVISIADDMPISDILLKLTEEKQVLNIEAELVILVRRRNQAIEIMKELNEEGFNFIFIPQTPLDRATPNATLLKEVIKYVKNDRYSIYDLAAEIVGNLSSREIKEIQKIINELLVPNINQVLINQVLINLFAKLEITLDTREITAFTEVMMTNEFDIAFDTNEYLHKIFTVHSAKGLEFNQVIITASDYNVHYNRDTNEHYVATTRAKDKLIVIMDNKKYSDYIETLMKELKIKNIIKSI

GajA;GajB = molecular target: T3, GajA;GajB (Bacillus cereus VD045;Bacillus cereus …, UniProt J8H9C1;J8HQ06 1-578;1-494, |); assay: EMSA; 5 mM Ca2+; conditions: protein: recombinant;recombinant; chain copies: 4;4; label: none (ethidium bromide post-stain)
T3 sequence 1: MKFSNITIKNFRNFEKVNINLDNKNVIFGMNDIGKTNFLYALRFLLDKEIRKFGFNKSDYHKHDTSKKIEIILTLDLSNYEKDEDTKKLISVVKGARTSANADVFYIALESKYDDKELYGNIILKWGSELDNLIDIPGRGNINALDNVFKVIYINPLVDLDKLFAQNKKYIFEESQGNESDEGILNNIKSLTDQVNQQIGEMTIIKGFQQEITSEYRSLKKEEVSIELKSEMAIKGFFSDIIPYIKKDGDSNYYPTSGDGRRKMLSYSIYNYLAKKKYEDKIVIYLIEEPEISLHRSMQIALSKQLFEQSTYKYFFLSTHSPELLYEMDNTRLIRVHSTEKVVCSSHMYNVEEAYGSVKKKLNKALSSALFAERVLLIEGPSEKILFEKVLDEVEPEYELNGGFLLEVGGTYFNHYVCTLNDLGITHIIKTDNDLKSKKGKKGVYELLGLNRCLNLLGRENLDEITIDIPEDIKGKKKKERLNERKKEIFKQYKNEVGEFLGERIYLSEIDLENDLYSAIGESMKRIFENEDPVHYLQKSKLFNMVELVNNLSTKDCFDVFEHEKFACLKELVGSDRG
T3 sequence 2: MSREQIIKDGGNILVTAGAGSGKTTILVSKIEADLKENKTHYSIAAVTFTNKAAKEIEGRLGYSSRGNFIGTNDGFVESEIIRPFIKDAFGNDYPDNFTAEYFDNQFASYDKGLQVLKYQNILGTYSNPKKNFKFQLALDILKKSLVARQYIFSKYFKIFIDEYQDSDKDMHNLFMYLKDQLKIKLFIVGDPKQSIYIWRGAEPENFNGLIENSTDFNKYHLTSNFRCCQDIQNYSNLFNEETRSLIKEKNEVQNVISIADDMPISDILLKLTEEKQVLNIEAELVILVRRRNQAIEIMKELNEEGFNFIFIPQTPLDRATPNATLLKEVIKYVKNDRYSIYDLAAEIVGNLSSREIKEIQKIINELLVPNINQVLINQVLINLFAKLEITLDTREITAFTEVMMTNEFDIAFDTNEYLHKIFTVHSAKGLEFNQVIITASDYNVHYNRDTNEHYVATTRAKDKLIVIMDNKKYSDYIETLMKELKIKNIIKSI

B1: Bacillus cereus VD045 GajB, untagged, co-expressed with tagged GajA (enzyme)
chain: MSREQIIKDGGNILVTAGAGSGKTTILVSKIEADLKENKTHYSIAAVTFTNKAAKEIEGRLGYSSRGNFIGTNDGFVESEIIRPFIKDAFGNDYPDNFTAEYFDNQFASYDKGLQVLKYQNILGTYSNPKKNFKFQLALDILKKSLVARQYIFSKYFKIFIDEYQDSDKDMHNLFMYLKDQLKIKLFIVGDPKQSIYIWRGAEPENFNGLIENSTDFNKYHLTSNFRCCQDIQNYSNLFNEETRSLIKEKNEVQNVISIADDMPISDILLKLTEEKQVLNIEAELVILVRRRNQAIEIMKELNEEGFNFIFIPQTPLDRATPNATLLKEVIKYVKNDRYSIYDLAAEIVGNLSSREIKEIQKIINELLVPNINQVLINQVLINLFAKLEITLDTREITAFTEVMMTNEFDIAFDTNEYLHKIFTVHSAKGLEFNQVIITASDYNVHYNRDTNEHYVATTRAKDKLIVIMDNKKYSDYIETLMKELKIKNIIKSI
notes: GajB, Bacillus cereus VD045, IMG ID 2519684553; also called BcGajB; source: co-purified (Ni-NTA, SEC) or in lysate
- stoichiometry N [1]: 2
- stoichiometry N [2]: 1 GajB per GajA (4:4)

B2: 56-bp scrambled dsDNA (dsDNA)
DNA 1: TTTTTTTTTTTTTTTTTGACATTACATTCAGTTTTTTTTTTTTTTTTTTTTTTTTT
DNA 2: AAAAAAAAAAAAAAAAAAAAAAAAACTGAATGTAATGTCAAAAAAAAAAAAAAAAA
- binding result (GajA E379A;GajB): binds

B3: 56-bp target dsDNA (dsDNA)
DNA 1: TTTTTTTTTTTTTTTTTAATAACCCGGTTATTTTTTTTTTTTTTTTTTTTTTTTTT
DNA 2: AAAAAAAAAAAAAAAAAAAAAAAAAATAACCGGGTTATTAAAAAAAAAAAAAAAAA
- binding result (GajA E379A;GajB): binds
- binding result (GajA;GajB): binds
